One experiment addresses RBD-his (SARS-CoV-2, UniProt P0DTC2). Nature of the experiment: AlphaScreen or HTRF. For orientation: Alpha assays give light when donor and acceptor beads are brought close together.
Experiment [1] concerns the target T1, SARS-CoV-2 RBD domain (residues 319-541) (SARS-CoV-2 Wuhan-Hu-1 (MN908947), UniProt P0DTC2). The experiment can be described thus: cryo-EM structure.
Experiment [2] addresses T2, SARS-CoV-2 RBD domain (residues 319–541) with C-terminal twin-strep-tag II (SARS-CoV-2 Wuhan-Hu-1 (MN908947), UniProt P0DTC2). Nature of the experiment: cryo-EM structure.
The target of experiment [3] is T2, SARS-CoV-2 RBD domain (residues …). Nature of the experiment: crystal structure.
For experiment [4], the target named is T1, SARS-CoV-2 RBD domain (residues 319-541). Nature of the experiment: crystal structure.

B1: nAb A34–2 (antibody, V domains shown)
VH: EVQLVESGGGLVQPGRSLRLSCAASGFTFDESAMHWVRQAPGEGLEWVSGISWNSGRIAYADSVRGRFTISRDNAKNSLYLQMNSLRAEDTALYFCALTTSGWFSFDYWGQGTLVTVSS
VL: SYVLTQPPSVSVAPGKTARITCGGNNIGSKSVHWYQQKPGQAPVPVIYYDSDRPSGIPERFSGSNSGNTATLTISRVEVGDEADYYCQVWDSSSDRAVFGGGTTLTVL
In the case of B1, the binding result with RBD-his is reported as “binds”.

B2: A34-2 Fab (Fab, V domains shown)
VH: B1 VH
VL: B1 VL
Regarding B2, in experiment [1], the binding result was “binds”.

B3: A34–2 Fab (Fab, V domains shown)
VH: B1 VH
VL: B1 VL
Regarding B3, the binding result in experiment [2] is recorded as “binds”.

B4: A5–10 Fab (Fab, V domains shown)
VH: EVQLLESGGGLVQPGGSLRLSCAASGFTFSSYAMSWVRQAPGKGLEWVSAIVGSGGSTYYADSVKGRFIISRDNSKNTLYLQMNSLRAEDTAVYYCAKSLIYGHYDILTGAYYFDYWGQGTLVTVSS
VL: AQMTQSPSSVSASVGDRVTIPCRASQGIGNWLAWYQQKPGKAPKLLIYAASSLQSGVPSRFSGSGSGTDFTLTISSLQPEDFATYYCQQANSFPPFGQGTRLEIK
Regarding B4, the binding result in experiment [2] was “binds”.

B5: A5-10 Fab (Fab, V domains shown)
VH: B4 VH
VL: B4 VL
Consider B5, for which the binding result in experiment [1] is “binds”.

B6: nAb A5–10 (antibody, V domains shown)
VH: B4 VH
VL: B4 VL
Consider B6, for which, in the experiment with RBD-his, the binding result is “binds”.

B7: A8–1 Fab (Fab, V domains shown)
VH: EVQLVESGGGLIQPGGSLRLSCAASGLTVSSNYMTWVRQAPGKGLEWVSVIYSGGSTFYAESVKGRFTISRDNSKNTLYLQMNSLRAEDTAVYYCARDLVVYGMDVWGQGTTVIVSS
VL: IQLTQSPSFLSASVGDRVTITCRASQGISSDLAWYQQKPGKAPKLLIYAASTLQSGVPSRFSGSGSGTEFTLTISSLQPEDFATYYCQQLNSHPLAFGPGTKVDIK
For B7, the binding result in experiment [3] is recorded as “binds”.

B8: A8-1 Fab (Fab, V domains shown)
VH: B7 VH
VL: B7 VL
Regarding B8, in experiment [4], the binding result is “binds”.

B9: nAb A8–1 (antibody, V domains shown)
VH: B7 VH
VL: B7 VL
For the molecule B9, the binding result with RBD-his is reported as “binds”.
